Measurements: article PMC8311663 (Molecular cell, 2021)

Columns and labels:
[1] = target: RNAP core (Mtb);sigmaA;CarD;RbpA (Mycobacterium …, UniProt P9WGZ1;P9WGY9;P9WGY7;P9WGY5;P9WGI1;P9WJG3;P9WHJ5 …, L7M|||); test: cryo-EM
[2] = target: RNAP core (Mtb);sigmaA;CarD;RbpA;WhiB7 (Mycobacterium …, UniProt P9WGZ1;P9WGY9;P9WGY7;P9WGY5;P9WGI1;P9WJG3;P9WHJ5;Q6MX01 …, L7M||||); test: cryo-EM

B1: whiB7 promoter (-70 to +30) (dsDNA)
DNA 1: CTGTACCGGCAAACGCGCAGGTCAGAAAATCGGTTGTGGTCAGCTGCTGCCACCGGTTAACCTCCAGGTCGCATTCTGCTGCCAGCCTGGAGATGGCATT
DNA 2: AATGCCATCTCCAGGCTGGCAGCAGAATGCGACCTGGAGGTTAACCGGTGGCAGCAGCTGACCACAACCGATTTTCTGACCTGCGCGTTTGCCGGTACAG
binding result [1]: binds | binding result [2]: binds
